Test results published in US10047131B2, “Peptides and combination of peptides for use in immunotherapy against ovarian cancer and other cancers” (immatics biotechnologies GmbH, priority 2015, dated 2018).

Each substance was assayed against HLA-A*02:01 (Homo sapiens, UniProt P04439, D140Y/D185E/D98H/E176V/E277Q/G131W/G231S/I119V/I121R/I166T/I218V/L300P/L318F/N151K/N90K/P208A/P217A/Q86G/Q94H/R138H/R169H/T345S) (assay: MHC binding assay (UV-ligand exchange, ELISA of exchange yield)). Details: binding to HLA-A*02:01, UV-ligand exchange.
Summary of the method: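 ELISA of β2m retained on streptavidin-captured, 100-fold diluted complexes (HRP anti-β2m, TMB, 450 nm) gives the yield. Complexes come from UV-triggered exchange of a photocleavable placeholder peptide for the candidate, which must bind to stop complex dissociation.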

Substance | Peptide exchange (MHC class I binding score, peptide exchange yield)
560 (ALWDIETGQQTTT; listed as Homo sapiens) [compound 560] | “+++” (≥50 = +++)
561 (YLQLTQSEL; listed as Homo sapiens) [compound 561] | “+++” (≥50 = +++)
562 (YLEELPEKLKL; listed as Homo sapiens) [compound 562] | “+++” (≥50 = +++)
563 (WLLPYNGVTV; listed as Homo sapiens) [compound 563] | “+++” (≥50 = +++)
564 (TVTNAVVTV; listed as Homo sapiens) [compound 564] | “+++” (≥50 = +++)
565 (ALQETPTSV; listed as Homo sapiens) [compound 565] | “++” (≥20% = ++)
566 (VIADGGIQNV; listed as Homo sapiens) [compound 566] | “++” (≥20% = ++)
567 (SLLPLDDIVRV; listed as Homo sapiens) [compound 567] | “+++” (≥50 = +++)
568 (TLYDIAHTPGV; listed as Homo sapiens) [compound 568] | “++++” (≥75% = ++++)
569 (KLVDRTWTL; listed as Homo sapiens) [compound 569] | “+++” (≥50 = +++)
570 (ALANQIPTV; listed as Homo sapiens) [compound 570] | “++” (≥20% = ++)
571 (LLLTTIPQI; listed as Homo sapiens) [compound 571] | “+++” (≥50 = +++)
572 (ALADLIEKELSV; listed as Homo sapiens) [compound 572] | “+++” (≥50 = +++)
573 (ILVANAIVGV; listed as Homo sapiens) [compound 573] | “+++” (≥50 = +++)
574 (YLLQEPPRTV; listed as Homo sapiens) [compound 574] | “++” (≥20% = ++)
575 (YLISQVEGHQV; listed as Homo sapiens) [compound 575] | “+++” (≥50 = +++)
576 (ILLNNSGQIKL; listed as Homo sapiens) [compound 576] | “++++” (≥75% = ++++)
577 (VMFEDGVLMRL; listed as Homo sapiens) [compound 577] | “+++” (≥50 = +++)
578 (FLDPGGPMMKL; listed as Homo sapiens) [compound 578] | “+++” (≥50 = +++)
579 (NLMEMVAQL; listed as Homo sapiens) [compound 579] | “++” (≥20% = ++)
580 (LLMENAERV; listed as Homo sapiens) [compound 580] | “++” (≥20% = ++)
582 (TLCDVILMV; listed as Homo sapiens) [compound 582] | “+++” (≥50 = +++)
583 (ILANDGVLLAA; listed as Homo sapiens) [compound 583] | “+++” (≥50 = +++)

Substance | Peptide exchange (MHC class I binding score, peptide exchange yield)
584 (ALAEVAAMENV; listed as Homo sapiens) [compound 584] | “+++” (≥50 = +++)
585 (ALWDLAADKQTL; listed as Homo sapiens) [compound 585] | “++++” (≥75% = ++++)
586 (KLKPGDLVGV; listed as Homo sapiens) [compound 586] | “+++” (≥50 = +++)
587 (VMNDRLYAI; listed as Homo sapiens) [compound 587] | “+++” (≥50 = +++)
588 (SLLPLSHLV; listed as Homo sapiens) [compound 588] | “+++” (≥50 = +++)
589 (KLYPQLPAEI; listed as Homo sapiens) [compound 589] | “+++” (≥50 = +++)
590 (SLIEKLWQT; listed as Homo sapiens) [compound 590] | “++” (≥20% = ++)
591 (SMAELDIKL; listed as Homo sapiens) [compound 591] | “+++” (≥50 = +++)
592 (RLLSAAENFL; listed as Homo sapiens) [compound 592] | “+++” (≥50 = +++)
593 (GLPRFGIEMV; listed as Homo sapiens) [compound 593] | “+++” (≥50 = +++)
594 (IMLKGDNITL; listed as Homo sapiens) [compound 594] | “+++” (≥50 = +++)
595 (VLLSIYPRV; listed as Homo sapiens) [compound 595] | “+++” (≥50 = +++)
596 (ALLDQTKTLAESAL; listed as Homo sapiens) [compound 596] | “+++” (≥50 = +++)
597 (KLLEGQVIQL; listed as Homo sapiens) [compound 597] | “+++” (≥50 = +++)
598 (FLFPHSVLV; listed as Homo sapiens) [compound 598] | “+++” (≥50 = +++)
599 (YLLNDASLISV; listed as Homo sapiens) [compound 599] | “+++” (≥50 = +++)
600 (ALAAPDIVPAL; listed as Homo sapiens) [compound 600] | “+++” (≥50 = +++)
601 (SAFPFPVTV; listed as Homo sapiens) [compound 601] | “+++” (≥50 = +++)
602 (YLLEQIKLIEV; listed as Homo sapiens) [compound 602] | “++++” (≥75% = ++++)
603 (FLIEPEHVNTV; listed as Homo sapiens) [compound 603] | “++” (≥20% = ++)
604 (SILDRDDIFV; listed as Homo sapiens) [compound 604] | “+++” (≥50 = +++)
605 (KLYEAVPQL; listed as Homo sapiens) [compound 605] | “+++” (≥50 = +++)
606 (ALWETEVYI; listed as Homo sapiens) [compound 606] | “+++” (≥50 = +++)
